Experimental data published in US20180244758A1.

Columns and labels:
[1] = target: EBOV GPCL (cleaved GP) (Ebola virus (EBOV)) (UniProt Q05320)
[2] = target: BDBV GP on rVSV particles (Bundibugyo virus (BDBV)); assay: cell-based or functional assay
[3] = target: EBOV GP on rVSV particles (Ebola virus (EBOV)) (UniProt Q05320); assay: cell-based or functional assay
[4] = target: GP of authentic (wild-type) BDBV (Bundibugyo virus (BDBV)); assay: cell-based or functional assay
[5] = target: GP of authentic (wild-type) EBOV (Ebola virus (EBOV)) (UniProt P87666); assay: cell-based or functional assay
GP of authentic (wild-type) EBOV (Ebola virus (EBOV)), sequence (P87666 33-676): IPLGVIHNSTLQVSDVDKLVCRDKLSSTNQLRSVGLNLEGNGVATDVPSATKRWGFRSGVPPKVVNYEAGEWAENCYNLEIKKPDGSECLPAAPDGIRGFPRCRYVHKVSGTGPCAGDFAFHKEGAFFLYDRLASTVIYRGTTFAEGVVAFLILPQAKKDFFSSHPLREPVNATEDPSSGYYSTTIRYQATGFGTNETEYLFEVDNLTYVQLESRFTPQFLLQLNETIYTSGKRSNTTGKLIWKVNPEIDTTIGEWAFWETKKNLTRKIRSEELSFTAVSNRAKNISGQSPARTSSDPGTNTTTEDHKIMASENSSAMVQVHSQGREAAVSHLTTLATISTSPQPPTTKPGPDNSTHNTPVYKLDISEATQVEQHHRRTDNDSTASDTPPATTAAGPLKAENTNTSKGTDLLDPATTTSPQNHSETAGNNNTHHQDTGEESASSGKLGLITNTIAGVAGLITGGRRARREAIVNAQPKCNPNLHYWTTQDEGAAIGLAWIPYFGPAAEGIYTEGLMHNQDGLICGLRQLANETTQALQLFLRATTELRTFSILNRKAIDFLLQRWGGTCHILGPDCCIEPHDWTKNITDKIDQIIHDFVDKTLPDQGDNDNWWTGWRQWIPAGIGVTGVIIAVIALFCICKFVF

[6] = target: GP of authentic (wild-type) SUDV (Sudan virus (SUDV)) (UniProt Q66814); assay: cell-based or functional assay
GP of authentic (wild-type) SUDV (Sudan virus (SUDV)), sequence (Q66814 33-676): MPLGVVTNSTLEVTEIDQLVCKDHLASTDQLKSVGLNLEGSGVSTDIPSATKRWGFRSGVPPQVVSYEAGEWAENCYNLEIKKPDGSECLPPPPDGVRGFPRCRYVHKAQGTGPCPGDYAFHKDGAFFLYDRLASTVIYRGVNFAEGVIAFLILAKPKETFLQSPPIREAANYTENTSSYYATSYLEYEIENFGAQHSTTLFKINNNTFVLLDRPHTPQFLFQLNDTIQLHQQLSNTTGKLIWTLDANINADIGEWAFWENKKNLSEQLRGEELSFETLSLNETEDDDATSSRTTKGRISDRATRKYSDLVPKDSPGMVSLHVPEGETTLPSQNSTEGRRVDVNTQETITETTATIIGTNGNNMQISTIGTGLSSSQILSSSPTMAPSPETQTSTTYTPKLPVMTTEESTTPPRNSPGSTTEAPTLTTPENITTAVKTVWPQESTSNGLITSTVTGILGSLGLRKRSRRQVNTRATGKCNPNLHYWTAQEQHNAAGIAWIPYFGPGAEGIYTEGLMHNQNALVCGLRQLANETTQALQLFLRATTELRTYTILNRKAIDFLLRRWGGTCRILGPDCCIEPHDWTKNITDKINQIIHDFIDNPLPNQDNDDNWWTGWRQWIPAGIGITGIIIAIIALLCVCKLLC

[7] = target: SUDV GP on rVSV particles (Sudan virus (SUDV)) (UniProt Q66814); assay: cell-based or functional assay
SUDV GP on rVSV particles (Sudan virus (SUDV)), sequence (Q66814 33-676): as above

[8] = target: TAFV GP on VSV pseudotype particles (Tai Forest virus (TAFV)) (UniProt Q66810); assay: cell-based or functional assay
TAFV GP on VSV pseudotype particles (Tai Forest virus (TAFV)), sequence (Q66810 33-676): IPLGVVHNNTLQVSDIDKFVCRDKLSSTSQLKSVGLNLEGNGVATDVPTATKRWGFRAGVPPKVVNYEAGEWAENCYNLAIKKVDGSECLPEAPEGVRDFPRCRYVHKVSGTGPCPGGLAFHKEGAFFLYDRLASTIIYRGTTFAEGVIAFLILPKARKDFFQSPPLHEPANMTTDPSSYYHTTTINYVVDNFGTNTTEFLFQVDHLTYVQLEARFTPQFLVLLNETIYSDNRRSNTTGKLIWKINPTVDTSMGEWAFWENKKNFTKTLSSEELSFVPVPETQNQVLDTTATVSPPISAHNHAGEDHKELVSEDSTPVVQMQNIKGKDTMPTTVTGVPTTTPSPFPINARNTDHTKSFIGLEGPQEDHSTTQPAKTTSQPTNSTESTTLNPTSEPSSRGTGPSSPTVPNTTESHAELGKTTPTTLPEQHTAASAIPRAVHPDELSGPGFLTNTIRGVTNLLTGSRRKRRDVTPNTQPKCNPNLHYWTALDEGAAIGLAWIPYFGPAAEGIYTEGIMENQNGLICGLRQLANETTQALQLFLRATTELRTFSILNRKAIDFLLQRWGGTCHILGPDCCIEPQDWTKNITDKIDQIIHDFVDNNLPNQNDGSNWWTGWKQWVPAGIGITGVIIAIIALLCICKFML

EBOV GPCL (cleaved GP) (Ebola virus (EBOV)), sequence (Q05320 33-190 limits assumed, chain 1 of 2): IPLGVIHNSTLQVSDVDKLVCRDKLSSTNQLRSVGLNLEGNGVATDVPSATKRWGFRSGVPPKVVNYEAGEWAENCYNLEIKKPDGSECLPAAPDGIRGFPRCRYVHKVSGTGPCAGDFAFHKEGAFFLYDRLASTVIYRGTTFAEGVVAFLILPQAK
EBOV GPCL (cleaved GP) (Ebola virus (EBOV)), sequence (Q05320 502-637 limits assumed, chain 2 of 2): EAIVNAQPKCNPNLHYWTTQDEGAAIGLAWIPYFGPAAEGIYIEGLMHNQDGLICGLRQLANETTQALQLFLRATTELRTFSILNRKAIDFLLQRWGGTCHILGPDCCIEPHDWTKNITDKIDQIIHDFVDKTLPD
EBOV GP on rVSV particles (Ebola virus (EBOV)), sequence (Q05320 33-676): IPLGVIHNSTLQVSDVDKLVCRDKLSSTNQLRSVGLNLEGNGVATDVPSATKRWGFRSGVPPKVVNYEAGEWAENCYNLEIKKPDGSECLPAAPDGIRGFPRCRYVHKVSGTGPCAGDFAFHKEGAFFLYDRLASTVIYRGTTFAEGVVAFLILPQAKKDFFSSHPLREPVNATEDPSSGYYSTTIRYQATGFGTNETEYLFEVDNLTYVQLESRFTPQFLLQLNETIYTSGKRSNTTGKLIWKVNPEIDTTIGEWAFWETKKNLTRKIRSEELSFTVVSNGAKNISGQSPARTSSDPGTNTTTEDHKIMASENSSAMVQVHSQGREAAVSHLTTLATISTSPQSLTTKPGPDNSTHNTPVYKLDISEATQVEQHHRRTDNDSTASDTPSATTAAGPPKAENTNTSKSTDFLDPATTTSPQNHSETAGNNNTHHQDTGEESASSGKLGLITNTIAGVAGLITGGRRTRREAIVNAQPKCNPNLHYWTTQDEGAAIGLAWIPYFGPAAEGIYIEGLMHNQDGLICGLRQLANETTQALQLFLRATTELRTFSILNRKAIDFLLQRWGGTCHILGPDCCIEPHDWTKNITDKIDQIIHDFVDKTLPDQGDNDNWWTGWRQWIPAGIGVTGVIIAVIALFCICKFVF

Row | Binder | Kd [1] [nM] | rVSV-GP neutralization IC50 [2] [nM] | rVSV-GP neutralization IC50 [3] [nM] | Authentic virus neutralization IC50 [4] [nM] | Authentic virus neutralization IC50 [5] [nM] | Authentic virus neutralization IC50 [6] [nM] | rVSV-GP neutralization IC50 [7] [nM] | rVSV-GP neutralization IC50 [8] [nM]
1 | mAb PE-87 (antibody, V domains shown) VH: QVQLVQSGVTLVQPGGSLRVSCAASGFTFSSYAMSWVRQAPGKGLEWVSAISGLGGSTYYADSVKGRFTISRDNSKNTLYLQMNSLRAEDTAVYYCAKDHRVWAAGYHFDYWGQGALVTVSS VL: DIVLTQSPSTLSASVGDRVTITCRASQSISSWLAWYQQKPGEAPKLLISDASSLESGVPSRFSGSGSGTEFTLTISSLQPDDFATYYCQQYYSSPTFGGGTKVEIK | < 0.001 | – | – | – | – | – | – | –
2 | mAb PE-64 (antibody, V domains shown) VH: EVQLVESGGGLVKPGGSLRLSCAASGFTFSNAWMSWVRQAPGKGLEWVGRIKSKTDGGTIDYAAPVKGRFTISRDDSKNTVYLQMTSLKTEDTAVYYCTTYTEDMRYFDWLLRGGETFDYWGQGTLVTVSS VL: DIRLTQSPSSLSASVGDRVTITCRASHYISTYLNWYQQKPGKAPKLLIYAASNLQSGVPSRFSGSGFGTDFSLTISSLQPEDFATYHCQQSYSTPGRYTFGQGTKVEIK | – | 0.4 | 2.5 | 1.5 | 0.6 | 120 | 40 | 8
